Target: the molecule itself
Assay: SEC-MALS

B1: G domain of SEPT7 (domain or fragment)
chain: YRKSVKRGFEFTLMVVGESGLGKSTLINSLFLTDLYSPEYPGPSHRIKKTVQVEQSKVLIKEGGVQLLLTIVDTPGFGDAVDNSNCWQPVIDYIDSKFEDYLNAESRVNRRQMPDNRVQCCLYFIAPSGHGLKPLDIEFMKRLHEKVNIIPLIAKADTLTPEECQQFKKQIMKEIQEHKIKIYEFPETDDEEENKLVKKIKDRLPLAVVGSNTIIEVNGKRVRGRQYPWGVAEVENGEHCDFTILRNMLIRTHMQDLKDVTNNVHYENYRSRKLAAVT
  stoichiometry N: 2
